Experimental data: patent US20240301038A1 (ATRECA, published 2024)

Target: T1, SARS-CoV-2 native Spike (S) trimer (Acro Biosystems) (SARS-CoV-2, UniProt P0DTC2 16-1213)
T1 construct: also called Spike trimer
Experiment: ELISA on spike trimer

B1: AB-009681 (antibody, V domains shown)
VH: QVQLVQSGAEVKKPGSSVKVSCKASGGTFSSYAISWVRQAPGQGLEWMGGIIPIFGTANYAQKFQGRVTITADESTSTAYMELSSLRSEDTAVYYCASVGGDYDLDYWGQGTLVTVSS
VL: EIVLTQSPATLSLSPGERATLSCRASQSVSSYLAWYQQKPGQAPRLLIYDASNRATGIPARFSGSGSGTDFTLTISSLEPEDFAVYYCQQRSNWPPYTFGQGTKLEIK
binding result: no binding
